According to patent publication US20050261472A1, “Binding moieties for fibrin” (Dyax Corp., priority 1999, published 2005):
Bridge positions count the residues as written; N and C are the ends. Ends that are not written are not given here.

Tests used:
[1] = target: T1, fibrin of an in vitro clot formed from human blood plasma (human, UniProt P02671 36-629; P02675 45-491; P02679 27-437); test: human plasma clotted in the presence of peptide, free peptide by Gd I.C.P., bound vs free fit
T1 construct: Plasma of a human donor clotted with CaCl2 in the presence of the peptide; also called in vitro blood clot
T1 sequence (looked up) 1: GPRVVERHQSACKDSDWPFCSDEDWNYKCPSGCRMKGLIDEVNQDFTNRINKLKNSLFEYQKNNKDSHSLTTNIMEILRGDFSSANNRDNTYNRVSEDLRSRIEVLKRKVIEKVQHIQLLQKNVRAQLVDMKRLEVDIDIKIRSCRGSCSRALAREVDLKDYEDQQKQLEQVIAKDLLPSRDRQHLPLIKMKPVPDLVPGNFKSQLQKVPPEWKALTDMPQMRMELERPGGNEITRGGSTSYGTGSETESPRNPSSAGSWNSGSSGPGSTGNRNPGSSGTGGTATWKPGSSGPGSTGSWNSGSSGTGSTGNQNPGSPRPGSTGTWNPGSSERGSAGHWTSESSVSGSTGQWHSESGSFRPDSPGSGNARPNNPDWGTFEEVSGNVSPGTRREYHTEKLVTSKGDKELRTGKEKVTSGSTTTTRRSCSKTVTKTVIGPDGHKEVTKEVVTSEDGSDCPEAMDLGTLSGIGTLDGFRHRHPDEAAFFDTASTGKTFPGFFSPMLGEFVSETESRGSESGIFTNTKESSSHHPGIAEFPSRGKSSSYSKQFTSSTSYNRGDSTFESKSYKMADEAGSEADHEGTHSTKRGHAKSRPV
T1 sequence (looked up) 2: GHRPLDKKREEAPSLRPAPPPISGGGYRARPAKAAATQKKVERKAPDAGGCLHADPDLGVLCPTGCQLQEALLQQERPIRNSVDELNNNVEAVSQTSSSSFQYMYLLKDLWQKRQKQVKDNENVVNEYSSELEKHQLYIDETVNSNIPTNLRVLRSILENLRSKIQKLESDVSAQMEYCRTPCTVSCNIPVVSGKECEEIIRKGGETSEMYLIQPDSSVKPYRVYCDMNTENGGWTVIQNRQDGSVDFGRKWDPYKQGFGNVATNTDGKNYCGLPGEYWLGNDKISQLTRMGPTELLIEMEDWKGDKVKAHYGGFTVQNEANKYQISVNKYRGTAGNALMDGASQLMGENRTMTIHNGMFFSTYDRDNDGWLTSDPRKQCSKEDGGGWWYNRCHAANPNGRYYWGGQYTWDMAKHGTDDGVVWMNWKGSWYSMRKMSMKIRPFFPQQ
T1 sequence (looked up) 3: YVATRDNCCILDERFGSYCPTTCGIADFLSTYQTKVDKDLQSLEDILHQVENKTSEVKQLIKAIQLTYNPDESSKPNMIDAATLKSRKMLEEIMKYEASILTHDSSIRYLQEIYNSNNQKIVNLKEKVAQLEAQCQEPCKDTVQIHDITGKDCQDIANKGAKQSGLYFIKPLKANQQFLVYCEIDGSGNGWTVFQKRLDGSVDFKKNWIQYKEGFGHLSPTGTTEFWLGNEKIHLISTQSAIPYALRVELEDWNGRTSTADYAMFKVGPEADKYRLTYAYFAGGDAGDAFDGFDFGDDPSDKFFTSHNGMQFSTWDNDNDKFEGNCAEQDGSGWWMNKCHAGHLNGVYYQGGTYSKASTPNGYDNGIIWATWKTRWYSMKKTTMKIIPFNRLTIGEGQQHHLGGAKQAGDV
Description: Freshly drawn whole blood was obtained from a human donor and centrifuged at 4000×g for 15 minutes to remove the hematocrit. The blood plasma (supernatant) was removed and dispensed into ten 1.5 ml tubes, 500 μL/tube. The MR labeled peptide of Example 11, GdDTPA-Pep1, was added to each tube at increasing concentrations (2, 5, 8, 10, 15, 20, 30, 50, 75, 100 μM) along with PBS buffer (50 mM sodium phosphate, 150 mM NaCl, pH 7.4) to bring the total volume to 550 μL. The sample was equilibrated at 37° C. A small aliquot (50 μL) was removed for quantitating the total peptide added (measured by Gd I.C.P. analysis after dilution into 0.1 M HNO₃). Clotting was initiated by the addition of 5 μL 2 M CaCl₂, and the samples are incubated at 37° C. for 1 hour. The tubes were spun down briefly (5 sec) and the clot was removed with a pipet tip. The remaining supernatant (˜200 μL) was diluted in HNO₃ and the peptide concentration (equal to the concentration of unbound or free peptide) was measured by Gd I.C.P. analysis. The difference between the total and free peptide concentrations yields the concentration of bound peptide.

dried fibrin [2] = target: T2, dried fibrin (UniProt P02671 36-629; P02675 45-491; P02679 27-437, limits assumed); test: ratio of Kd for fibrinogen (equilibrium dialysis) to Kd for fibrin
T2 construct: Polymerised fibrin made in 96-well plates from fibrinogen and thrombin, dried at 37 C and rehydrated; also called (rehydrated) dried fibrin; fibrin target
T2 sequence (looked up) 1: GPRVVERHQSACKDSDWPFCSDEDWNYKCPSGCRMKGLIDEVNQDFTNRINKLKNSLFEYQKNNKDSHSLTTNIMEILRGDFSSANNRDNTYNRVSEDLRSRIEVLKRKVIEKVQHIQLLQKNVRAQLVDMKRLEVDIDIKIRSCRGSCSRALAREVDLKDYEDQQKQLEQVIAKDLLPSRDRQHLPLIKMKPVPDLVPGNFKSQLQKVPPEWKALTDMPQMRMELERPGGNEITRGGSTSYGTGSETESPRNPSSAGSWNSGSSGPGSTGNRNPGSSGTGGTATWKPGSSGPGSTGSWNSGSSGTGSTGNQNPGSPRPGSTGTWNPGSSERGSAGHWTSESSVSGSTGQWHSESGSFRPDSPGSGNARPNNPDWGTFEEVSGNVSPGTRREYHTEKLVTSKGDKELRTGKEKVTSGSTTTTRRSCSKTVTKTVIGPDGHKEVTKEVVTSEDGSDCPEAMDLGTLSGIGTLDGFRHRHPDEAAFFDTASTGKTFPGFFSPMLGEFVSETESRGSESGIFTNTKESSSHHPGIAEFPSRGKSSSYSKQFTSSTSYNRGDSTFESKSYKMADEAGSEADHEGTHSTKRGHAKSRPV
T2 sequence (looked up) 2: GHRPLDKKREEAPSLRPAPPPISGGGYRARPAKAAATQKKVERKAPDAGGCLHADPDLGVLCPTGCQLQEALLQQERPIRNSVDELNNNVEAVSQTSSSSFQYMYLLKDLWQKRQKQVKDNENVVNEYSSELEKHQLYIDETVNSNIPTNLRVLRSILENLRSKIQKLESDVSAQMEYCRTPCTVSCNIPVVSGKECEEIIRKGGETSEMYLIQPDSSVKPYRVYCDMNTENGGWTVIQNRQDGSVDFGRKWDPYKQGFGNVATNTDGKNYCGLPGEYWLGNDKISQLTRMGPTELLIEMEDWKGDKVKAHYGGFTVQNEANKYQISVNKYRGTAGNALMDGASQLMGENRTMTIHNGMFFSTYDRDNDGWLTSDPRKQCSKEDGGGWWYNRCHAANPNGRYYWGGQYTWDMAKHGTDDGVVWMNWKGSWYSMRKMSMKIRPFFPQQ
T2 sequence (looked up) 3: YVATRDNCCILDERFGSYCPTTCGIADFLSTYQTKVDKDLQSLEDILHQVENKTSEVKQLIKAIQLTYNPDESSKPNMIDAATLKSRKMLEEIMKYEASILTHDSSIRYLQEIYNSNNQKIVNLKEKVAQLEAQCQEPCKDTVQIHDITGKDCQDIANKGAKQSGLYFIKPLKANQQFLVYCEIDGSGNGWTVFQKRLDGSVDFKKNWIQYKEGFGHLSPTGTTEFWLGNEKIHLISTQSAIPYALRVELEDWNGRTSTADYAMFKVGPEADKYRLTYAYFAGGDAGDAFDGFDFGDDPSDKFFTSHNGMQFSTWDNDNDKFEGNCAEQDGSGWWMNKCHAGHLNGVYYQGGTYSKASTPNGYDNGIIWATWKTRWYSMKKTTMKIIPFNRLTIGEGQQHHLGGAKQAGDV
Description: (§1) A solution of fibrinogen (10 mg/ml) was mixed with the MR labeled peptide of Example 11 designated Gd-DTPA-Pep1, at concentrations of 10, 50 and 100 μM. The fibrinogen/peptide solution was placed on one side of a dialysis membrane in an equilibrium dialysis apparatus. The solution was allowed to equilibrate with an equal volume of buffer on the opposite side of the membrane.

dried fibrin [3] = target: T2, dried fibrin; test: dried fibrin plate, bound vs free peptide
fibrinogen = target: T3, fibrinogen (UniProt P02671 20-629; P02675 31-491; P02679 27-437, limits assumed); test: equilibrium dialysis, fibrinogen 10 mg/ml, peptide by I.C.P.
T3 sequence (looked up) 1: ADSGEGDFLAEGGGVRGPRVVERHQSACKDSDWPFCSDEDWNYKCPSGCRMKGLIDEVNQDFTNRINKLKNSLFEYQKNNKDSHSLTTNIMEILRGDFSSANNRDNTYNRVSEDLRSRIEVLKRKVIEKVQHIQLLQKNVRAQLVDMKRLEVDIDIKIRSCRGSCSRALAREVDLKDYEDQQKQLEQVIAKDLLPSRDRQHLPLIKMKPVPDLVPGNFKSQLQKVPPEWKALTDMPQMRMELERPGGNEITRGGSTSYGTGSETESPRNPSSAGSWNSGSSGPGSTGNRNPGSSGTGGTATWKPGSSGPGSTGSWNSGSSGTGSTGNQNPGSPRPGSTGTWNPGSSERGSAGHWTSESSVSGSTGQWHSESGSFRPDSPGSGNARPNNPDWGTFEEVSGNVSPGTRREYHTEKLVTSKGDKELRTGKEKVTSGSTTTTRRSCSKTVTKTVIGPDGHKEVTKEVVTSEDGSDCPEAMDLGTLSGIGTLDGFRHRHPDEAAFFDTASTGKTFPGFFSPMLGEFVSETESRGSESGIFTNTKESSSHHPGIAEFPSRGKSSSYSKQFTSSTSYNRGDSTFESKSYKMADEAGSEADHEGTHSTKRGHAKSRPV
T3 sequence (looked up) 2: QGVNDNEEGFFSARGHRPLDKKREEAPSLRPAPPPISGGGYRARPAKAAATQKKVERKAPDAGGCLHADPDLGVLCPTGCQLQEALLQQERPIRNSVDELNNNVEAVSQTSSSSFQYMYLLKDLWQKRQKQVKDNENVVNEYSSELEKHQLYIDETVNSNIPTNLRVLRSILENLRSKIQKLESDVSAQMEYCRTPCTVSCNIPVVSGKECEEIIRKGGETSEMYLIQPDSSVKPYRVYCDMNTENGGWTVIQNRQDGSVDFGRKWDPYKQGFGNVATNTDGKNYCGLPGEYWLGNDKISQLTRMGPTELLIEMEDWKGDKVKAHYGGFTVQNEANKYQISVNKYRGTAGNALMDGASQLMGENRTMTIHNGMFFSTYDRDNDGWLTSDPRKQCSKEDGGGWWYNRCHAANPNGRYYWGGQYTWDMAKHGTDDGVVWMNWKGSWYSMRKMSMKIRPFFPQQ
T3 sequence (looked up) 3: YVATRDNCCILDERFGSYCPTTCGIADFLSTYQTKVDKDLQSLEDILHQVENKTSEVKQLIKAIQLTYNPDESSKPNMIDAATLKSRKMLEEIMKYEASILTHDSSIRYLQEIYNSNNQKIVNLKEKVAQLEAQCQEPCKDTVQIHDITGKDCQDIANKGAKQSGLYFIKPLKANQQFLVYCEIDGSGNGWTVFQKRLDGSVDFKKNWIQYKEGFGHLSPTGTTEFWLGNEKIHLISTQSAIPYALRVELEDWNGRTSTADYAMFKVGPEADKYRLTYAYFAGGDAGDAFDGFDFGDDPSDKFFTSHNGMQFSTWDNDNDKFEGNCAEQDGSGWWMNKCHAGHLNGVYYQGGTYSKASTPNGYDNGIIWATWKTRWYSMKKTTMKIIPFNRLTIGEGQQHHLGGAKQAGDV
Description: as §1

- Kd [1]: ~20 µM
- specificity for fibrin over fibrinogen (fold) (dried fibrin [2]): ~70 fold
- Kd (dried fibrin [3]): 7.4 µM
- Kd (fibrinogen): 190 µM
B1: Gd-DTPA-Pep1 (peptide)
peptide: LPCDYYGTCLD
modifications: disulfide 3-9 (inferred); not fully specified (N-terminus); also: Gd(III)-DTPA chelate, from DTPA-Asp(beta-COOH)-OtBu
